From article PMC4049591

What was measured:
[1] = HA immunoblot of auto-cleavage; conditions: glycan lost; control: wild-type SHH-HA
[2] = cycloheximide chase of SHH-C, HA immunoblot; conditions: glycan changed form; control: untreated cells

For sonic hedgehog (SHH): N278A, the “other: proteolytic processing” value [1] was “abolishes”.
For “sonic hedgehog (SHH): castanospermine (CST)”, the degradation_or_half_life [2] was “decreases”.
For sonic hedgehog (SHH): kifunensine (KIF), the degradation_or_half_life [2] was “decreases”.
